US20090081238A1 (Genentech, published 2009)
Positions count from the first letter of the chain named.

B1: Antibody A-1 (antibody, V domains shown)
VH: EVQLVESGGGLVQPGGSLRLSCAASGFTFSSYWIHWVRQAPGKGLEWVARINPPNGSAHYADSVKGRFTISADTSKNTAYLQMNSLRAEDTAVYYCARGSGFRWVMDYWGQGTLVTVSS
VL: DIQMTQSPSSLSASVGDRVTITCRASQDVSTAVAWYQQKPDGTVKLLIYSASFLYSGVPSRFSGSGSGTDFTLTISSLQPEDFATYYCQQSYTTPATFGQGTKVEIKR
notes: also called Antibody A-1-hIgG1
B2: Antibody A-3 (antibody, V domains shown)
VH: B1 VH with P54A, A58T, H59R
VL: DIQMTQSPSSLSASVGDRVTITCRASQDVSTAVAWYQQKPDGTVKLLIYSASFLYSGVPSRFSGSGSGTDFTLTISSLQPEDFATYYCQQSFSTPATFGQGTKVEIK
B3: Antibody A-1 (phage-displayed Fab clone) (Fab, V domains shown)
VH: B1 VH
VL: B1 VL
B4: Antibody A-3 (phage-displayed Fab clone) (Fab, V domains shown)
VH: B1 VH with P54A, A58T, H59R
VL: B2 VL
B5: Antibody A-2 (phage-displayed Fab clone) (Fab, V domains shown)
VH: B1 VH with G56R, A58N, H59Q
VL: B1 VL with S91F, A96S
B6: Antibody A (antibody, V domains shown)
VH: B1 VH with P54S, A58T, H59N
VL: B1 VL with A96P
notes: Tested as full-length human IgG1 (hIgG1) made in CHO cells; also called anti-Notch1 NRR Antibody A; Antibody A-hIgG1
B7: Antibody A-2 (antibody, V domains shown)
VH: B1 VH with G56R, A58N, H59Q
VL: B1 VL with S91F, A96S
notes: also called Antibody A-2-hIgG1

Columns and labels:
[1] = target: mEGF34+NRR-L1597H-FLAG-TEV-Fc (mouse) (UniProt Q01705); test: ELISA, target coated on the plate at 1 ug/ml, IgG titrated in 3-fold steps, detected with peroxidase anti-human Fab; A630
Chain of mEGF34+NRR-L1597H-FLAG-TEV-Fc (mouse) (Q01705 1307-1723, stated change not applied): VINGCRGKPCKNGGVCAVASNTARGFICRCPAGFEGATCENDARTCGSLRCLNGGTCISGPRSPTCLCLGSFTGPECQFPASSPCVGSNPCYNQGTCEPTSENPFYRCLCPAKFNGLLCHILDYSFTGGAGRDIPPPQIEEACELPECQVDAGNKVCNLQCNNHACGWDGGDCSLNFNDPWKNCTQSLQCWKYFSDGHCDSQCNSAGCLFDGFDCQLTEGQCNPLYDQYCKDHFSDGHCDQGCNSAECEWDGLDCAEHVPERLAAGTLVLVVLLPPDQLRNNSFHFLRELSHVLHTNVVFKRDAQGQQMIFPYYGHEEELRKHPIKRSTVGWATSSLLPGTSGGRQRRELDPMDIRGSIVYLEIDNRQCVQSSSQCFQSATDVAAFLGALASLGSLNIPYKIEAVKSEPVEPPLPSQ

[2] = target: T1, hFLAG-EGF34+NRR-His6 (101V), the human Notch1 NRR immunogen (Notch1 V1307-Q1733) (human, UniProt P46531 1307-1733); test: as above
T1 construct: also called hNotch1 NRR; human NRR1
Description: (§1) 1 μg/ml of proteins in PBS, pH 7.4, were coated on ELISA plates (Nunc Maxisorp) at 4° C. overnight. Plates were blocked with Casein blocker in PBS (phosphate buffered saline; Pierce) for one hour at room temperature. Serial 3-fold dilutions of anti Notch1 NRR IgGs or irrelevant IgG in PBST buffer (PBT buffer (PBS+0.05% (v/v) Tween 20) with 0.5% (w/v) BSA) were added to the plates and incubated for one hour at room temperature. The plates were then washed with PBST and bound antibodies were detected with peroxidase-conjugated goat anti human Fab specific IgG (Sigma). TMB substrate (3,3′,5,5′-etramethylbenzidine) was used and absorbance at 650 nm was read using a standard ELISA plate reader. Absorbance was plotted against concentrations of IgGs using KaleidaGraph (Synergy Software).

[3] = target: T2, mFLAG-EGF34+NRR-His6, the mouse Notch1 NRR immunogen (Notch1 V1307-Q1723) (mouse, UniProt Q01705 1307-1723); test: as above
T2 construct: the rest carries an N-terminal FLAG tag and a C-terminal His tag; also called mNotch1 NRR; murine NRR1
T2 sequence (Q01705 other isoform, or with tags, fused parts or gaps): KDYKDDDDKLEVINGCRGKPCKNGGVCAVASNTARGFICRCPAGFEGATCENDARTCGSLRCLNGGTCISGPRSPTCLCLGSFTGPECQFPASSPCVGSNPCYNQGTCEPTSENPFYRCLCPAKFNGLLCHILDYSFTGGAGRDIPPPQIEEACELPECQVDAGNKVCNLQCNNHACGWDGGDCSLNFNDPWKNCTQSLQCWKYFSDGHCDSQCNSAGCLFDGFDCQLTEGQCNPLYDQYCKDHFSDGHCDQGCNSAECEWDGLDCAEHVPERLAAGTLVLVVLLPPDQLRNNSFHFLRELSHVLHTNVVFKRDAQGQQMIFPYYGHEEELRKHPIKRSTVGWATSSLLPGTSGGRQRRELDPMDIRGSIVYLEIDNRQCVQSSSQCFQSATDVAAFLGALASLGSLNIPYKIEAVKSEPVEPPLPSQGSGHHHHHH
Description: as §1

hFLAG-NRR-His6 (102V) = target: T3, hFLAG-NRR-His6 (102V) (human, UniProt P46531 1447-1733); test: as above
T3 construct: no EGF-like repeats; not shown: FLAG tag; thrombin cleavage site and HIS tag
Description: as §1

[4] = target: T1, hFLAG-EGF34+NRR-His6 (101V), the human …; test: SPR (BIAcore-3000), IgG captured by anti-human IgG, NRR1-ECD injected 3.9-500 nM, 25 C
Description: (§2) To further characterize the binding affinity and binding kinetics of the anti-Notch1 NRR Mabs, surface plasmon resonance (SRP) measurement with a BIAcore™-3000 was used (BIAcore, Inc., Piscataway, N.J.). Briefly, carboxymethylated dextran biosensor chips (CM5, BIAcore Inc.) were activated with N-ethyl-N′-(3-dimethylaminopropyl)-carbodiimide hydrochloride (EDC) and N-hydroxysuccinimide (NHS) according to the supplier's instructions. Rabbit anti human antibody (Pierce) was diluted with 100 mM sodium acetate, pH 4.8, into 20 μg/ml before injection at a flow rate of 5 μl/minute to achieve approximately 3000 response units (RU) of coupled antibody. Next, 1M ethanolamine was injected to block unreacted groups. Anti-NRR1 mab (formatted as a full-length IgG) was captured by rabbit anti-human IgG coated on the chips to achieve approximately 200 response units (RU). For kinetics measurements, two-fold serial dilutions of human NRR1-ECD or murine NRR1-ECD proteins (3.9 nM to 500 nM) were injected in PBT buffer (PBS with 0.05% Tween 20) at 25° C. with a flow rate of 30 μl/min. Association rates (kₒₙ) and dissociation rates (koff) were calculated using a simple one-to-one Langmuir binding model (BIAcore Evaluation Software version 3.2). The equilibrium dissociation constant (KD) was calculated as the ratio koff/kₒₙ.

[5] = target: T2, mFLAG-EGF34+NRR-His6, the mouse Notch1 …; test: as above
Description: as §2

[6] = target: T1, hFLAG-EGF34+NRR-His6 (101V), the human …; test: competitive phage-binding ELISA: phage-displayed Fab, soluble NRR1 titrated against coated NRR1
Description: (§3) To identify the phage antibodies that bound to both human and murine Notch1 NRR, all unique clones were tested for binding to human and murine Notch1 by ELISA. The affinities of phage antibodies were ranked using single spot competition ELISA as described below in this Example. The phage antibody IC50 values were further determined using competitive phage-binding ELISA essentially described in Lee, C. V., et al. (2004) J Mol Biol 340, 1073-93. Briefly, NUNC 96 well Maxisorp immunoplates were coated overnight at 4° C. with 1 μg/ml human NRR1 or murine NRR1, and were blocked for 1 hour at room temperature with blocking buffer PBST (PBS and 1% BSA and 0.05% Tween 20). Phage was mixed with serial dilution of human or murine NRR1 at room temperature for 1 hour before the mixture was added to human and murine NRR1 coated plate. Bound phage were detected with anti-M13 HRP conjugates, developed with TMB substrate for approximately 5 minutes, quenched with 1M H₃PO₄, and read spectrophotometrically at 450 nm.

[7] = target: T2, mFLAG-EGF34+NRR-His6, the mouse Notch1 …; test: as above
Description: as §3

[8] = target: human Notch1 (on NIH-3T3 cells) (human, UniProt P46531 19-2555); test: cell-based or functional assay
human Notch4 NRR = target: T4, human Notch4 NRR (human, UniProt Q99466 1172-1447, limits assumed); test: cross-reactivity test of the IgG (method not detailed)
T4 construct: domain: NRR; Construct not described; also called human NRR4
T4 sequence (looked up): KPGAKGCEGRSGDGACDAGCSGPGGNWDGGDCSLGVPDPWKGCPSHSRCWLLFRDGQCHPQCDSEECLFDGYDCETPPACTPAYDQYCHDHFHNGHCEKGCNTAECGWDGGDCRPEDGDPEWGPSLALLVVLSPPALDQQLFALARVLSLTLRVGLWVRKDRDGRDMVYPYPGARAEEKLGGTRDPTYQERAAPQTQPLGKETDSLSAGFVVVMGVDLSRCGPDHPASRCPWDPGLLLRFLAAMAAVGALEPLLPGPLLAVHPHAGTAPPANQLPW

murine Notch2 NRR = target: T5, murine Notch2 NRR (mouse, UniProt O35516 1425-1679); test: as above
T5 construct: domain: NRR; Construct not described; also called mouse NRR2
T5 sequence (looked up): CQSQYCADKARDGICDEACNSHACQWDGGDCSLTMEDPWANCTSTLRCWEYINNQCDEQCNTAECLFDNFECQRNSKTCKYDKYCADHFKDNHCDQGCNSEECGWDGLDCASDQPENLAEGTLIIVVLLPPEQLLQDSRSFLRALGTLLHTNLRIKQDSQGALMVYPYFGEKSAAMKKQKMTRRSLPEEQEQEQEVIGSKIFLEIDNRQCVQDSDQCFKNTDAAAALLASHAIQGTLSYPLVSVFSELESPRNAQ

human Notch3 NRR = target: T6, human Notch3 NRR (human, UniProt Q9UM47 1378-1643, limits assumed); test: as above
T6 construct: domain: NRR; Construct not described; also called human NRR3
T6 sequence (Q9UM47 1378-1643 limits assumed): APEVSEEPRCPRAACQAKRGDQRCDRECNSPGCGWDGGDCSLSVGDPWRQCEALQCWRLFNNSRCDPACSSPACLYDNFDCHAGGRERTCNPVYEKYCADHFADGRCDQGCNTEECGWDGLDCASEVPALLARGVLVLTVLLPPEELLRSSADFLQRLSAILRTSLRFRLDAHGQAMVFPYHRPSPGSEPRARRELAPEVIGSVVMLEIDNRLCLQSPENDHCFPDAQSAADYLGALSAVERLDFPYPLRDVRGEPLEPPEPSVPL

murine Notch3 NRR = target: T7, murine Notch3 NRR (mouse, UniProt Q61982 1379-1643, limits assumed); test: as above
T7 construct: domain: NRR; Construct not described; also called mouse NRR3
T7 sequence (Q61982 1379-1643 limits assumed): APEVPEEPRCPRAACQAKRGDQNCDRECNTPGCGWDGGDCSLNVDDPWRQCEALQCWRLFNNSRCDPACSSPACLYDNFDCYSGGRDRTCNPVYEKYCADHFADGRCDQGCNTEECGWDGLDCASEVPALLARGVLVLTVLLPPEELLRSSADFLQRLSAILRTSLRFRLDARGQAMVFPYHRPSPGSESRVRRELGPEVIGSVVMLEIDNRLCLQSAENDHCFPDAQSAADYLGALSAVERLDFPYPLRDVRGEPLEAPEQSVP

human Notch2 NRR = target: T8, human Notch2 NRR (human, UniProt Q04721 1425-1677); test: as above
T8 construct: domain: NRR; Construct not described; also called human NRR2
T8 sequence (looked up): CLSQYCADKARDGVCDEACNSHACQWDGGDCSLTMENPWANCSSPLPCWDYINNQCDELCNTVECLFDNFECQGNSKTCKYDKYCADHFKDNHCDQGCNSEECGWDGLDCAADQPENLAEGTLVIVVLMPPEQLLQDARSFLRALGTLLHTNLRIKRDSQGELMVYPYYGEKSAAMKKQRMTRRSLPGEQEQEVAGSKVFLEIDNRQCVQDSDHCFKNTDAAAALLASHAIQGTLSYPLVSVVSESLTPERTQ

murine Notch4 NRR = target: T9, murine Notch4 NRR (mouse, UniProt P31695 1168-1443, limits assumed); test: as above
T9 construct: domain: NRR; Construct not described; also called mouse NRR4
T9 sequence (looked up): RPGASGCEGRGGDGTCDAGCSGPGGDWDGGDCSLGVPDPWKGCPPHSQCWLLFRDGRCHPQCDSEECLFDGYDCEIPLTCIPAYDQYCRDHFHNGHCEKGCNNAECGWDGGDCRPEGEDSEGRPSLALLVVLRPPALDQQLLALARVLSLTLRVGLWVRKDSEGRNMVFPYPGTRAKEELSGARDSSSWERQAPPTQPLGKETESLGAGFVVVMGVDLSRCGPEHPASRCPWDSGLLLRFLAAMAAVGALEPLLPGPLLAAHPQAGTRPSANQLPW

Row | Binder | EC50 (read off the curve) [1] [µg/mL] | EC50 (read off the curve) [2] [µg/mL] | EC50 (read off the curve) [3] [µg/mL] | EC50 (read off the curve) (hFLAG-NRR-His6 (102V)) [µg/mL] | Kd [4] [nM] | koff [4] [s⁻¹] | kon [4] [M⁻¹ s⁻¹] | Kd [5] [nM] | koff [5] [s⁻¹] | kon [5] [M⁻¹ s⁻¹] | IC50 [6] [nM] | IC50 [7] [nM] | Co-culture blocking, IC50 [8] [µg/mL] | binding result (human Notch4 NRR) | binding result (murine Notch2 NRR) | binding result (human Notch3 NRR) | binding result (murine Notch3 NRR) | binding result (human Notch2 NRR) | binding result (murine Notch4 NRR)
1 | B1 | 0.06 | ~0.2 | ~0.07 | ~0.1 | 3.43 | 0.00023 | 67000 | 3.88 | 0.00033 | 85000 | – | – | – | – | – | – | – | – | –
2 | B2 | – | – | – | – | 5.88 | 0.0004 | 68000 | 13 | 0.0012 | 92000 | – | – | – | – | – | – | – | – | –
3 | B3 | – | – | – | – | – | – | – | – | – | – | 0.8 | 0.6 | – | – | – | – | – | – | –
4 | B4 | – | – | – | – | – | – | – | – | – | – | 0.5 | 2.5 | – | – | – | – | – | – | –
5 | B5 | – | – | – | – | – | – | – | – | – | – | 0.5 | 0.5 | – | – | – | – | – | – | –
6 | B6 | 0.04 | ~0.07 | ~0.05 | ~0.07 | 134 | 0.011 | 82000 | 231 | 0.021 | 91000 | – | – | ~0.1 | no binding | no binding | no binding | no binding | no binding | no binding
7 | B7 | 0.04 | ~0.07 | ~0.05 | ~0.06 | 2.53 | 0.00022 | 87000 | 3.09 | 0.00034 | 110000 | – | – | – | – | – | – | – | – | –
